Test results: PMC8690526, “Expression, purification and characterisation of a human anti-CDK4 single-chain variable fragment antibody” (BMC Biotechnology, 2021)

Columns and labels:
Conditions in all cases: both partners purified
bovine serum albumin = biological target: T1, bovine serum albumin (Bos taurus, UniProt P02769); assay: ELISA; non-competitive; plates coated with rhCDK4 or irrelevant proteins (rhPHD2, rhCOX-2, BSA); purified AK2 10 μg/mL in 3% non-fat milk in PBST, 2 h; detection by anti-V5 tag antibody and HRP-conjugated IgG, A492
T1 construct: serum albumin, bovine; also called BSA

[1] = biological target: T2, recombinant human prolyl hydroxylase 2 (Homo sapiens, UniProt Q9GZT9); assay: as above
T2 construct: prolyl hydroxylase 2 (PHD2), human, recombinant; also called rhPHD2; PHD2

[2] = biological target: T3, recombinant human cyclin-dependent kinase 4 (Homo sapiens, UniProt P11802); assay: ELISA; non-competitive, affinity constant; plates coated with rhCDK4 at 8.0, 4.0, 2.0, 1.0 μg/mL; serial dilutions of AK2 (8.000-0.125 μg/mL); Kaff = (n − 1) / (n [Ab′] − [Ab]), n = [Ag] / [Ag′]; triplicates
T3 construct: cyclin-dependent kinase 4 (CDK4), human, recombinant; also called rhCDK4; CDK4
T3 sequence (P11802 whole entry): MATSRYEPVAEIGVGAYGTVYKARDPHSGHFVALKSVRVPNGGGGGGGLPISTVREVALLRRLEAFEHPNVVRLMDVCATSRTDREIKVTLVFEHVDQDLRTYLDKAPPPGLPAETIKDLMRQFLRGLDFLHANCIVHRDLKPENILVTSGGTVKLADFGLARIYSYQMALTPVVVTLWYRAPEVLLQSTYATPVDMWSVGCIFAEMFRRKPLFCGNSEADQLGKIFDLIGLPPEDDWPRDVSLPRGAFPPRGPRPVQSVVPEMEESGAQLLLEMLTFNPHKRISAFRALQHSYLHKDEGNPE

T2 sequence (Q9GZT9 whole entry): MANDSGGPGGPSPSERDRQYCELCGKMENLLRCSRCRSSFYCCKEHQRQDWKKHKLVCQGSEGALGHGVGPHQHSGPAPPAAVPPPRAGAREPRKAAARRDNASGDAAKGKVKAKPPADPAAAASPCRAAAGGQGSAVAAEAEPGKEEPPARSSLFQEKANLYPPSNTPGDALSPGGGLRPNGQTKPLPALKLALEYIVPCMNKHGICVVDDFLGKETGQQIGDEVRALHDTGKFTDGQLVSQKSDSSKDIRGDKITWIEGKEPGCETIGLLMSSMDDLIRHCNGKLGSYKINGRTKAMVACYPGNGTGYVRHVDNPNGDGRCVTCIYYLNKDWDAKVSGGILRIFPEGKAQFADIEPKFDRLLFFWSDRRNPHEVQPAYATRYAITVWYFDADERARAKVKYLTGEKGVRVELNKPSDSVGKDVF
T1 sequence (P02769 25-607): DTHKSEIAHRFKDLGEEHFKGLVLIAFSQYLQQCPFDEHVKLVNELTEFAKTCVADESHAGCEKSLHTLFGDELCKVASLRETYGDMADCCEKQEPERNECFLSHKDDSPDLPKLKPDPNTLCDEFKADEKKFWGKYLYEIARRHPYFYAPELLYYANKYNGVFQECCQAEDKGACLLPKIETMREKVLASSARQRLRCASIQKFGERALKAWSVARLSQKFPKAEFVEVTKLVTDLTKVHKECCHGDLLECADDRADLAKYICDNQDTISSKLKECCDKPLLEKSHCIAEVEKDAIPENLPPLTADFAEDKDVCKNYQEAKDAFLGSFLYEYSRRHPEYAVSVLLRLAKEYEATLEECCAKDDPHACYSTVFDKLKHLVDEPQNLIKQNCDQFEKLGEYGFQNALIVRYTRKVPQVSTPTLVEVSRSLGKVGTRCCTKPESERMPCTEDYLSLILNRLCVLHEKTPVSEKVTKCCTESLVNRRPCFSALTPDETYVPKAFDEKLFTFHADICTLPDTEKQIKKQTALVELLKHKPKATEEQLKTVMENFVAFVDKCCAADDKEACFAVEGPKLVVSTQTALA

B1: human anti-CDK4 single-chain variable fragment antibody AK2 (scFv, V domains shown)
VH: QVQLQESGGGLVQPGGSLRLSCAASGFTFSSYAMSWVRQAPGKGLEWVSAISGSGGSTYYADSVEGRFTISRDNSKNTLYLQMNSLRAEDTAVYYCARRLTGFDYWGQGTLVTVSS
VL: QSALTQPPSASGSPGQSVTISCTGTSSDVGGYNYVSWYQQHPGKAPKLMIYDVSKRPSGVSNRFSGSKSGNTASLTIFGLQAEDEADYYCSSYTSSSTLVFGGGTKLTVL
notes: AK2-VH; linker peptide between the variable regions; AK2-VL; A pelB leader stands upstream of AK2 in the phagemid; About 30 kD on SDS-PAGE; also called soluble AK2; purified AK2; source: E. coli HB2151 (AK2/HB2151), IPTG-induced, secreted into the culture supernatant; used as culture supernatant or purified (ammonium sulphate precipitation, Ni2+-NTA, PD-10 desalting); …
binding result (bovine serum albumin): no binding (tested: 10 μg/mL AK2) | binding result [1]: no binding (tested: 10 μg/mL AK2) | Ka [2]: 2.48e+07 M⁻¹
